These results are taken from publication PMC3673099.

Assay [1] addresses CyPet-(pre-SUMO3)-YPet (human) (UniProt P55854).
The target of assay [2] is CyPet-(pre-SUMO2)-YPet (human) (UniProt P61956).
Assay [3] deals with CyPet-(pre-SUMO1)-YPet (human) (UniProt P63165).
UniProt P63165, sequence (P63165 1-97): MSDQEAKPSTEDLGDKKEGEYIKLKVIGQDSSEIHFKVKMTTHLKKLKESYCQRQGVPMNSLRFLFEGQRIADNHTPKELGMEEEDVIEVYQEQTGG

UniProt P61956, sequence (P61956 whole entry): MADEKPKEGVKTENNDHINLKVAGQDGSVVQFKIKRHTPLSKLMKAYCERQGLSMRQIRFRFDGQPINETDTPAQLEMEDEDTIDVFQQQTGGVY
UniProt P55854, sequence (P55854 1-92): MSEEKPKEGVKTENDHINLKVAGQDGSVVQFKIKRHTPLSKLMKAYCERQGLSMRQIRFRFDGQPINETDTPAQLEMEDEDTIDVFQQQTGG

catalytic domain of SENP1 (enzyme): in assay [1], the Km of the SENP1 catalytic domain for CyPet-(pre-SUMO3)-YPet, FRET-based protease assay, Michaelis-Menten fit, real-time detection (internal calibration) came to 1.99 µM and the Km of the SENP1 catalytic domain for CyPet-(pre-SUMO3)-YPet, FRET-based protease assay, Michaelis-Menten fit, standard curve analysis was found to be 3.75 µM. For the same substance, in assay [2], the Km of the SENP1 catalytic domain for CyPet-(pre-SUMO2)-YPet, FRET-based protease assay, Michaelis-Menten fit, real-time detection (internal calibration) is 0.17 µM and the Km of the SENP1 catalytic domain for CyPet-(pre-SUMO2)-YPet, FRET-based protease assay, Michaelis-Menten fit, standard curve analysis is 0.17 µM. Besides, in assay [3], the Km of the SENP1 catalytic domain for CyPet-(pre-SUMO1)-YPet, FRET-based protease assay, Michaelis-Menten fit, real-time detection (internal calibration) came to 0.14 µM and the Km of the SENP1 catalytic domain for CyPet-(pre-SUMO1)-YPet, FRET-based protease assay, Michaelis-Menten fit, standard curve analysis came out at 0.18 µM.
